Patent publication US20260151519A1 (AKTIS ONCOLOGY, published 2026)
Bridges are numbered along the chain shown (N, C = ends). Primed or numbered codes have the meaning given here. Where no end group is shown, it is not given here. [ ]: non-standard residue; d: D form. The star is where a group is joined. DOTA = O=C(O)CN1CCN(CC(=O)O)CCN(CC(=O)*)CCN(CC(=O)O)CC1; Biotin = O=C1N[C@H]2[C@H](CS[C@H]2CCCCC(=O)*)N1; hydroxy‑norleucine = hydroxy-norleucine residue; Cit = NC(=O)NCCC[C@H](N)C(=O)O; PEG4″ = 4(ethylene glycol); PEG12′ = not defined here; Nle = CCCC[C@H](N)C(=O)O

target: T1, Human Nectin-4 (human, UniProt Q96NY8 32-349, limits assumed); test: Table 2B (DELFIA or SPR)
T1 construct: Protein immobilised on the SPR chip; also called target protein
T1 sequence: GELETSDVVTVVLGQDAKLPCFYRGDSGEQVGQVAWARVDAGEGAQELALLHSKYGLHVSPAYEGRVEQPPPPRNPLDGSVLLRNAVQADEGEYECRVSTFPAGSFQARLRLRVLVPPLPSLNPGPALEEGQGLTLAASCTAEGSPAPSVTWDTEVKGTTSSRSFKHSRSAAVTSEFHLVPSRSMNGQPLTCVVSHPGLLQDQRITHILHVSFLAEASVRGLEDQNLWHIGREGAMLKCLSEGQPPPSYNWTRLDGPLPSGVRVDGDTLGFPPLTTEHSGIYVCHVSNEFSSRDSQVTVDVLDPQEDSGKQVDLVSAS

Question: {Biotin-PEG4″}-CEYDEEFFTALKKLRGGDICYYIQQAFNYLPGICIEEILDNLGC (designed binder, disulfide 1-34, 20-44) [C107] was tested. Which Kd did it give?
Answer: The Kd was 3.38 nM.

Question: Ac-CEYDEQFFTALKRLRGGDICYYISAQFNTLPDLCIEEILENLGC-OH (designed binder, disulfide 1-34, 20-44) [C100] was tested. Which Kd did it give?
Answer: Its Kd is 4.8 nM.

Question: For Ac-CEYDEEFFTGLKRLRGGTICYYIKKKFKKVPDLCIEEILDKLGC-OH (designed binder, disulfide 1-34, 20-44) [C41], which Kd is on record?
Answer: The Kd was 5.6 nM.

Question: Ac-CEYDEEFFKALKRLRGGDICYYIKKKFKKVPKLCIEEILDKLGC-OH (designed binder, disulfide 1-34, 20-44) [C81] was tested. Which Kd did it give?
Answer: The Kd was 0.43 nM.

Question: {DOTA-PEG12′}-CEYDEEFFAGLKRLRGGDICYYIKKKFDKVPDLCIEEILDKLGC-OH (designed binder, disulfide 1-34, 20-44) [C51] was tested. Which Kd did it give?
Answer: The Kd was 8.37 nM.

Question: Ac-CEYDEQFFTGLKRLRGGDICYYIKKKFKKVPKLCIEEILDKLGC-OH (designed binder, disulfide 1-34, 20-44) [C71] was tested. Which Kd did it give?
Answer: Its Kd is 2.85 nM.

Question: Ac-CEYDEEFFLGLKRLRGGDICYYIKKKFKKVPDLCIEEILEKLGC-OH (designed binder, disulfide 1-34, 20-44) [C60] was tested. Which Kd did it give?
Answer: Its Kd is 3.17 nM.

Question: Which Kd does the source give for Ac-CEYDEEFFLALKRLRGGDICYYIKKKFKKVPKLCIEEILEKLGC-OH (designed binder, disulfide 1-34, 20-44) [C77] here?
Answer: Its Kd is 0.58 nM.

Question: With Ac-CEYDEKFFTGLKRLRGGDICYYIKKKFKKVPDLCIEEILDKLGC-OH (designed binder, disulfide 1-34, 20-44) [C46] as the binder, how does the Kd read?
Answer: Its Kd is 2.28 nM.

Question: Ac-CEYDEEFFTDLKRLRGGDICYYIKKKFKKVPKLCIEEILDKLGC-OH (designed binder, disulfide 1-34, 20-44) [C52] was tested. Which Kd did it give?
Answer: Its Kd is 5.24 nM.

Question: Which Kd does the source give for Ac-CEYDEEFFLGLKRLRGGDICYYIKKKFKKVPKLCIEEILKKLGC-OH (designed binder, disulfide 1-34, 20-44) [C63] here?
Answer: Its Kd is 1.97 nM.

Question: For Ac-CEYDEEFFLGLKRLRGGDICYYIKKKFKKVPKLCIEEILDKLGC-OH (designed binder, disulfide 1-34, 20-44) [C58], which Kd is on record?
Answer: The Kd was 1.81 nM.

Question: For Ac-CEYDEEFFTGLKRLRGGDICYYIKKKFKKVPDLCIEEILEKLGC-OH (designed binder, disulfide 1-34, 20-44) [C45], which Kd is on record?
Answer: Its Kd is 3.29 nM.

Question: For Ac-CEYDEKFFTGLKRLRGGDICYYIKKKFKKVPKLCIEEILDKLGC-OH (designed binder, disulfide 1-34, 20-44) [C70], which Kd is on record?
Answer: The Kd was 2.2 nM.

Question: How did the Kd turn out when Ac-CEYDEEFFTALKRLRGGDICYYIKKKFKKVPKLCIEEILDKLGC-OH (designed binder, disulfide 1-34, 20-44) [C57] was run?
Answer: Its Kd is 0.29 nM.

Question: For Ac-CEYDEEFFLGLKRLRGGDICYYIKKKFKKVPELCIEEILKKLGC-OH (designed binder, disulfide 1-34, 20-44) [C67], which Kd is on record?
Answer: The Kd was 2.64 nM.

Question: With Ac-CEYDEEFFLGLKRLRGGDICYYIKKKFKKVPELCIEEILEKLGC-OH (designed binder, disulfide 1-34, 20-44) [C68] as the binder, how does the Kd read?
Answer: Its Kd is 2.66 nM.

Question: Which Kd does the source give for Ac-CEYDEEFFTALKRLRGGDICYYIKKKFKKVPKLCIEEILEKLGC-OH (designed binder, disulfide 1-34, 20-44) [C79] here?
Answer: Its Kd is 0.38 nM.

Question: Which Kd does the source give for Ac-CEYDEEFFTGLKRLRGGDICYYIKKKFKKVPELCIEEILKKLGC-OH (designed binder, disulfide 1-34, 20-44) [C65] here?
Answer: The Kd was 2.21 nM.

Question: With Ac-CEYDEEFFTTLKRLRGGDICYYIKKKFKKVPKLCIEEILDKLGC-OH (designed binder, disulfide 1-34, 20-44) [C55] as the binder, how does the Kd read?
Answer: The Kd was 3.39 nM.

Question: For Ac-CEYDEEFFLGLKRLRGGDICYYIKKKFKKVPKLCIEEILEKLGC-OH (designed binder, disulfide 1-34, 20-44) [C61], which Kd is on record?
Answer: The Kd was 1.79 nM.

Question: Ac-CEYDEEFFKGLKRLRGGDICYYIKKKFKKVPKLCIEEILEKLGC-OH (designed binder, disulfide 1-34, 20-44) [C69] was tested. Which Kd did it give?
Answer: The Kd was 1.86 nM.

Question: With Ac-CEYDEEFFTGLKRLRGGDICYYIKKKFKKVPELCIEEILEKLGC-OH (designed binder, disulfide 1-34, 20-44) [C66] as the binder, how does the Kd read?
Answer: Its Kd is 2.63 nM.

Question: Which Kd does the source give for Ac-CEYDEQFFTGLKRLRGGDICYYIKKKFKKVPDLCIEEILDKLGC-OH (designed binder, disulfide 1-34, 20-44) [C49] here?
Answer: Its Kd is 1.93 nM.

Question: With Ac-CEYDEEFFLGLKRLRGGDICYYIKKKFKKVPDLCIEEILKKLGC-OH (designed binder, disulfide 1-34, 20-44) [C64] as the binder, how does the Kd read?
Answer: The Kd was 3.8 nM.

Question: Ac-CEYDEEFFKGLKRLRGGDICYYIKKKFKKVPKLCIEEILDKLGC-OH (designed binder, disulfide 1-34, 20-44) [C80] was tested. Which Kd did it give?
Answer: The Kd was 2.7 nM.

Question: With Ac-CEYDEEFFLALKRLRGGDICYYIKKKFKKVPKLCIEEILDKLGC-OH (designed binder, disulfide 1-34, 20-44) [C78] as the binder, how does the Kd read?
Answer: The Kd was 0.49 nM.

Question: For Ac-CEYDEEFFTGLKRLRGGDICYYIKKKFKKVPDLCIEEILKKLGC-OH (designed binder, disulfide 1-34, 20-44) [C44], which Kd is on record?
Answer: Its Kd is 3.14 nM.

Question: Which Kd does the source give for Ac-CEYDEEFFKALKRLRGGDICYYIKKKFKKVPKLCIEEILEKLGC-OH (designed binder, disulfide 1-34, 20-44) [C76] here?
Answer: Its Kd is 0.52 nM.

Question: With Ac-CEYDEEFFTLLKRLRGGDICYYIKKKFKKVPKLCIEEILDKLGC (designed binder, disulfide 1-34, 20-44) [C56] as the binder, how does the Kd read?
Answer: Its Kd is 3.88 nM.

Question: {Biotin-PEG4″}-CEYDEEFFTALA[Cit]LRGDDICSYIQA[hydroxy‑norleucine]FQYLPGLCIEEILDNLGCS-OH (designed binder, disulfide 1-34, 20-44) [C170] was tested. Which Kd did it give?
Answer: The Kd was 8.8 nM.

Question: Ac-CEYDEEFFTALKKLRGGDICYYIQQAFNYLPGICIEEILDNLGC-OH (designed binder, disulfide 1-34, 20-44) [C104] was tested. Which Kd did it give?
Answer: The Kd was 3.7 nM.

Question: For Ac-CEYDEEFFTALSRLRGGDICYYIQQAFQYLPGLCIEEILDNLGC-NH2 (designed binder, disulfide 1-34, 20-44) [C132], which Kd is on record?
Answer: Its Kd is 30.1 nM.

Question: {Biotin-PEG4″}-CEYDEEFFTALARLRGGDICYYIQA[hydroxy‑norleucine]FQYLPGLCIEEILDNLGCS-OH (designed binder, disulfide 1-34, 20-44) [C164] was tested. Which Kd did it give?
Answer: The Kd was 5 nM.

Question: {Biotin-PEG4″}-CEYDEEFFTALKRLRGGDICEYIQA[Nle]FQYLPGLCIEEILDNLGCS-OH (designed binder, disulfide 1-34, 20-44) [C199] was tested. Which Kd did it give?
Answer: Its Kd is 3.5 nM.

Question: With {Biotin-PEG4″}-CEYDEEFFTALA[Cit]LRGGDICEYIQAKFQYLPGLCIEEILDNLGCS-OH (designed binder, disulfide 1-34, 20-44) [C171] as the binder, how does the Kd read?
Answer: Its Kd is 2.2 nM.

Question: Which Kd does the source give for {Biotin-PEG4″}-CDYDEEFFTALA[Cit]LRGGDICEYIQAKFQYLPGLCIEEILDNLGCS-OH (designed binder, disulfide 1-34, 20-44) [C176] here?
Answer: The Kd was 1.3 nM.

Question: Which Kd does the source give for {Biotin-PEG4″}-CEYDEEFFTALA[Cit]LRGDDICSYIQAKFQYLPGLCIEEILDNLGCS-OH (designed binder, disulfide 1-34, 20-44) [C172] here?
Answer: Its Kd is 1.8 nM.

Question: For {Biotin-PEG4″}-CEYDEEFFTALA[Cit]LRGGDICYYIQAKFQYLPGLCIEEILDNLGCS-OH (designed binder, disulfide 1-34, 20-44) [C163], which Kd is on record?
Answer: The Kd was 1.9 nM.

Question: {Biotin-PEG4″}-CEYDEEFFTALA[Cit]LRGGDICSYIQAKFQYLPGLCIEEILDNLGCS-OH (designed binder, disulfide 1-34, 20-44) [C175] was tested. Which Kd did it give?
Answer: Its Kd is 2.3 nM.

Question: {Biotin-PEG4″}-CEYDEQFFTALKRLRGGDICYYISAQFNTLPDLCIEEILENLGC-OH (designed binder, disulfide 1-34, 20-44) [C103] was tested. Which Kd did it give?
Answer: Its Kd is 6.6 nM.

Question: With {Biotin-PEG4″}-CEYDEEFFTALARLRGGDICYYIQA[hydroxy‑norleucine]FQYLPGLCIEEILDNLGCS-OH (designed binder, disulfide 1-34, 20-44) [C173] as the binder, how does the Kd read?
Answer: Its Kd is 5 nM.
